Reference: patent US20090081229A1 (published 2009)

Columns and labels:
[1] = biological target: T1, HVEM expressed on transfected 293 cells (Homo sapiens (Human), UniProt Q92956 39-283); experiment: radioligand binding to transfected cells, Scatchard analysis
T1 construct: Transient transfection of human 293 cells with pRK5-HVEM; also called HVEM transfected cells; 293 cells expressing HVEM
T1 sequence: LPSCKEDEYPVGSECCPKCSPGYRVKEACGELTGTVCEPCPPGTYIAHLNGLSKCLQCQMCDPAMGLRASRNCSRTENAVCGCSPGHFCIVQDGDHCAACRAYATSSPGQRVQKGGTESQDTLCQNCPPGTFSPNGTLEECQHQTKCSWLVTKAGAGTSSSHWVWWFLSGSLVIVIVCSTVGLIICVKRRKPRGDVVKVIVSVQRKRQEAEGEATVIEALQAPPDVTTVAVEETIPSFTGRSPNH
Description: (§1) PRO87299 binds to HVEM in a cell based assay. In this experiment human 293 cells (ATCC CCL 1573) are grown to confluence in tissue culture plates in medium such as DMEM supplemented with fetal calf serum and optionally, nutrient components and/or antibiotics. About 10 μg pRK5-HVEM DNA is mixed with about 1 μg DNA encoding the VA RNA gene [Thimmappaya et al., Cell, 31:543 (1982)] and dissolved in 500 μl of 1 mM Tris-HCl, 0.1 mM EDTA, 0.227 M CaCl₂. To this mixture is added, dropwise, 500 μl of 50 mM HEPES (pH 7.35), 280 mM NaCl, 1.5 mM NaPO₄, and a precipitate is allowed to form for 10 minutes at 25° C. The precipitate is suspended and added to the 293 cells and allowed to settle for about four hours at 37° C. The culture medium is aspirated off and 2 ml of 20% glycerol in PBS is added for 30 seconds. The 293 cells are then washed with serum free medium, fresh medium is added and the cells are incubated for about 5 days. Alternatively, about 10 μg pRK5-HVEM DNA is mixed with LipofectAMINE™ (Gibco/BRL, Gaithersburg Md.) reagent and transfection performed by following the manufacturer's instructions. After the 293 cells were transfected with HVEM, they were incubated with 1125 radiolabled PRO87299(ECD)-Fc and binding allowed to occur. The radiolabled PRO87299 was then competed off with unlabled PRO87299(ECD)-Fc and the estimated number of total binding sites and the dissociation constant (Kd) were determined by Scatchard analysis. FIG. 17(A) is a Scatchard plot and FIG. 17(B) is a displacement plot showing PRO87299(ECD)-Fc binding to HVEM transiently transfected cells. […] Using this methodology, the affinity of HVEM/LIGHT/PRO87299 interactions were determined.

[2] = biological target: T2, PRO87299(ECD)-Fc (human, UniProt Q7Z6A9 31-155); experiment: SPR (Biacore), PRO87299-Fc amine coupled at ~9800 RU
T2 construct: Reduced apparent molecular weight 55 kDa; also called PRO87299-Fc; PRO87299(ECD)-Fc chimera; not shown: human Fc domain
T2 sequence: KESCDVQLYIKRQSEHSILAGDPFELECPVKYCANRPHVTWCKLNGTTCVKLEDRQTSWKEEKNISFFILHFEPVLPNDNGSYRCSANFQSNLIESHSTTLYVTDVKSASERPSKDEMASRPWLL
Description: PRO87299 interaction to HVEM is not blocked by LIGHT. PRO87299-Fc was amine coupled to a Biacore™ CM5 sensor chip at ˜9800 response units. LIGHT (purchased from Alexis™, Cat. #552-018-C010) was incubated at the increasing concentrations with 4 nM HVEM for 1 hr. […] LIGHT activity was confirmed by binding to immobilized HVEM-Fc on a CM5 sensor chip (data not shown). […] All binding sensograms were run in random order and in duplicate. Response units were recorded as the difference between baseline and 15 seconds before the end of a 2 min injection at 5 μl/min. Concentrations are based on molecular weights of 25 kDa for LIGHT monomer and 55 kDa for monomer HVEM.

[3] = biological target: T2, PRO87299(ECD)-Fc; experiment: SPR (Biacore), PRO87299(ECD)-Fc amine coupled at ~8000 RU
Description: (§2) In this experiment, PRO87299(ECD)-Fc and CD28 family members hCTLA4-Fc, hPD-1-Fc, hICOS-Fc or hCD28-Fc were amine coupled to a Biacore™ CM5 chip at approximately 8000 response units. Each was then assayed for its ability to bind HVEM. An HVEM-Fc protein was made by ligating the nucleic acids encoding amino acids 1-199 of HVEM to a Fc, resulting in a HVEM-Fc fusion protein. This HVEM-Fc was cloned into an a expression vector which would produce the fusion protein when stably transfected into CHO cells. […] The result was 2 μg/ml of HVEM-Fc injected at 5 μl/min bound selectively to PRO87299 and not to the other member of the CD28 family members tested. The activity of each CD28 family member was confirmed positive by testing the binding response to their known ligands (data not shown) (CD28 family members and ligands were purchased from R&D systems).

[4] = biological target: T3, hCD28-Fc (human, UniProt P10747 19-152); experiment: SPR (Biacore), hCD28-Fc amine coupled at approximately 8000 RU
T3 construct: Bought; not shown: Fc; not described
Description: as §2

[5] = biological target: T4, hICOS-Fc (human, UniProt Q9Y6W8 21-141); experiment: SPR (Biacore), hICOS-Fc amine coupled at approximately 8000 RU
T4 construct: Bought; not shown: Fc; not described
T4 sequence (looked up): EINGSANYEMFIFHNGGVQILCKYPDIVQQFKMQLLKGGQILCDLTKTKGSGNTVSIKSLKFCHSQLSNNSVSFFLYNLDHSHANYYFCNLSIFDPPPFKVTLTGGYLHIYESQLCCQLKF
Description: as §2

[6] = biological target: T5, hPD-1-Fc (human, UniProt Q15116 25-167); experiment: SPR (Biacore), hPD-1-Fc amine coupled at approximately 8000 RU
T5 construct: Bought; not shown: Fc; not described
Description: as §2

[7] = biological target: T6, hCTLA4-Fc (human, UniProt P16410 37-162, limits assumed); experiment: SPR (Biacore), hCTLA4-Fc amine coupled at approximately 8000 RU
T6 construct: Bought; not shown: Fc; not described
T6 sequence (looked up): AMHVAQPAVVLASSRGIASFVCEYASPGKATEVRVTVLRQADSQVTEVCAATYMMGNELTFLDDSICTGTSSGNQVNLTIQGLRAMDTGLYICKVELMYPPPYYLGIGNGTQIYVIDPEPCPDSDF
Description: as §2

[8] = biological target: T7, PRO87299 expressed on cells (human, UniProt Q7Z6A9 31-289); experiment: radioligand binding to transfected cells, Scatchard analysis
T7 construct: also called PRO87299 transfected cells; 293 cells expressing PRO87299
Description: as §1

[9] = biological target: T8, LIGHT expressed on transfected cells (Homo sapiens (Human), UniProt O43557 1-240); experiment: as above
T8 construct: also called LIGHT (expressed protein)
Description: as §1

[10] = biological target: T9, PRO87299/LIGHT (both expressed on the same transfected cells) (human, UniProt Q7Z6A9 31-289; O43557 1-240); experiment: radioligand binding to cells expressing both PRO87299 and LIGHT, Scatchard analysis
T9 construct: Two proteins co-expressed on cells as the target of I-125-HVEM-Fc; not a defined complex

T5 sequence (Q15116 25-167 limits assumed): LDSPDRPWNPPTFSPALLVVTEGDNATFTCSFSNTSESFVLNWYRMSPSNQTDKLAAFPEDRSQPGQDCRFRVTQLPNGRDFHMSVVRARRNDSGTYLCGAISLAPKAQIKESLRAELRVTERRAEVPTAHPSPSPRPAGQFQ
T3 sequence (P10747 19-152 limits assumed): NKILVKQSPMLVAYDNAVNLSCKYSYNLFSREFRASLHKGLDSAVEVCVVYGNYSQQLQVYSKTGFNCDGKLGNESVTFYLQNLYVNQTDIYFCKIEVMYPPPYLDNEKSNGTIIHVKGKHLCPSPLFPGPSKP

B1: LIGHT-FLAG (ligand)
chain: GEMVTRLPDGPAGSWEQLIQERRSHEVNPAAHLTGANSSLTGSGGPLLWETQLGLAFLRGLSYHDGALVVTKAGYYYIYSKVQLGGVGCPLGLASTITHGLYKRTPRYPEELELLVSQQSPCGRATSSSRVWWDSSFLGGVVHLEAGEEVVVRVLDERLVRLRDGTRSYFGAFMV
notes: Radio-iodinated; also called I-125-LIGHT-FLAG; not shown: FLAG tag
Kd [1]: 2.5 nM

B2: LIGHT (soluble, purchased from Alexis, Cat. #552-018-C010) (ligand)
chain: B1 chain
notes: Bought soluble protein; Monomer molecular weight 25 kDa used for concentrations
binding result [2]: no binding

B3: HVEM-Fc (Fc fusion)
chain: LPSCKEDEYPVGSECCPKCSPGYRVKEACGELTGTVCEPCPPGTYIAHLNGLSKCLQCQMCDPAMGLRASRNCSRTENAVCGCSPGHFCIVQDGDHCAACRAYATSSPGQRVQKGGTESQDTLCQNCPPGTFSPNGTLEECQHQTKCSWLVTKAGAGTSSS
notes: Produced in stably transfected CHO cells, Protein A purified; also called HVEM-Fc fusion protein; I-125-HVEM-Fc; not shown: Fc
binding result [3]: binds
binding result [4]: no binding (tested: 2 µg/ml)
binding result [5]: no binding (tested: 2 µg/ml)
binding result [6]: no binding (tested: 2 µg/ml)
binding result [7]: no binding (tested: 2 µg/ml)
Kd [8]: 5.5 nM
Kd [9]: 7 nM
Kd [10]: 0.5 nM
